“Also recorded” adds a separate entry of the source.
What was measured:
[1] = Observation of appearance with the naked eye (physical stability); type: physicochemical
Excerpt: Each buffer was also designed to have 4 salt concentrations.
If there was evident precipitation or turbidity, no further determination would be carried out. If the samples had no abnormal phenomena observable with the naked eye, the samples were taken and subjected to determination of absorption values at 360 nm and HPLC detection, wherein the former investigated the physical stability, and the latter investigated the chemical stability.
The solutions were mixed uniformly, filtered through a 0.22 μm filter membrane, dispensed into 2 mL Penicillin bottles, and placed at different temperatures for investigation. A series of sampling time points were arranged. After sampling, the samples were firstly observed with the naked eye for appearance.
The solutions were adjusted to pH 3.5-4.0, mixed uniformly, filtered through a 0.22 μm filter membrane, dispensed into 2 mL Penicillin bottles, and placed at different temperatures for investigation. A series of sampling time points were arranged. The samples were firstly observed with the naked eye for appearance. If no evident turbidity or gelatination was occurred, the sample was considered as qualified as for physical stability, and then subjected to HPLC detection to analyze the chemical stability.

[2] = HPLC analysis of GLP-1 on C18 column (chemical stability); type: physicochemical; conditions: 8 days
Experimental: An investigation method for chemical stability: a test sample was taken, and analyzed on a C18 column (3.5 μm, 300 Å, φ 4.6×50 mm). An analytical method: mobile phase A was 0.1% trifluoroacetic acid, B was the A phase with 80% acetonitrile added therein, the detection wavelength was 280 nm, 60% A and 40% B were balanced for 3 min, and the sample amount was 2 to 5 μL. Elution was performed with linear gradient for 8 min with 40% to 53% of the B phase and 60% to 47% of the A phase. Peak area was calculated using the normalization method. A standard sample was determined with the same method. The peptide concentration in the sample was calculated by comparison with the standard sample, and compared with the determination result at day 0, to calculate the retention of the peptide content in the sample. A higher retention of the peptide content indicated better chemical stability.
The HPLC detection method was performed according to Example 1.
The formulation method and HPLC detection method of the pharmaceutical compositions were performed according to Example 5.

## Glucagon-like peptide 1 [GLP-1]
[1]; 20 mmol/L Na2HPO4-NaH2PO4 pH 7.0, NaCl 0 mmol/L
  Situations of samples after preparation: Clear and transparent
[1]; 20 mmol/L Na2HPO4-NaH2PO4 pH 7.0, NaCl 20 mmol/L
  Situations of samples after preparation: Clear and transparent
[1]; 20 mmol/L Na2HPO4-NaH2PO4 pH 7.0, NaCl 150 mmol/L
  Situations of samples after preparation: Clear and transparent
[1]; 20 mmol/L Na2HPO4-NaH2PO4 pH 7.0, NaCl 500 mmol/L
  Situations of samples after preparation: Clear and transparent
[1]; 20 mmol/L Na2HPO4-NaH2PO4 pH 7.5, NaCl 0 mmol/L
  Situations of samples after preparation: Clear and transparent
[1]; 20 mmol/L Na2HPO4-NaH2PO4 pH 7.5, NaCl 20 mmol/L
  Situations of samples after preparation: Clear and transparent
[1]; 20 mmol/L Na2HPO4-NaH2PO4 pH 7.5, NaCl 150 mmol/L
  Situations of samples after preparation: Clear and transparent
[1]; 20 mmol/L Na2HPO4-NaH2PO4 pH 7.5, NaCl 500 mmol/L
  Situations of samples after preparation: Clear and transparent
[1]; 20 mmol/L NaAC-HAC pH 3.0, NaCl 0 mmol/L
  Situations of samples after preparation: Clear and transparent
[1]; 20 mmol/L NaAC-HAC pH 3.0, NaCl 20 mmol/L
  Situations of samples after preparation: Clear and transparent
[1]; 20 mmol/L NaAC-HAC pH 3.0, NaCl 150 mmol/L
  Situations of samples after preparation: Clear and transparent
[1]; 20 mmol/L NaAC-HAC pH 3.0, NaCl 500 mmol/L
  Situations of samples after preparation: Clear and transparent
[1]; 20 mmol/L NaAC-HAC pH 3.5, NaCl 0 mmol/L
  Situations of samples after preparation: Clear and transparent
[1]; 20 mmol/L NaAC-HAC pH 3.5, NaCl 20 mmol/L
  Situations of samples after preparation: Clear and transparent
[1]; 20 mmol/L NaAC-HAC pH 3.5, NaCl 150 mmol/L
  Situations of samples after preparation: Clear and transparent
[1]; 20 mmol/L NaAC-HAC pH 3.5, NaCl 500 mmol/L
  Situations of samples after preparation: Turbid
[1]; 20 mmol/L NaAC-HAC pH 4.0, NaCl 0 mmol/L
  Situations of samples after preparation: Clear and transparent
[1]; 20 mmol/L NaAC-HAC pH 4.0, NaCl 20 mmol/L
  Situations of samples after preparation: Clear and transparent
[1]; 20 mmol/L NaAC-HAC pH 4.0, NaCl 150 mmol/L
  Situations of samples after preparation: Clear and transparent
[1]; 20 mmol/L NaAC-HAC pH 4.0, NaCl 500 mmol/L
  Situations of samples after preparation: Turbid
[1]; 20 mmol/L NaAC-HAC pH 4.5, NaCl 0 mmol/L
  Situations of samples after preparation: Difficult to filter
[1]; 20 mmol/L NaAC-HAC pH 4.5, NaCl 20 mmol/L
  Situations of samples after preparation: Difficult to filter
[1]; 20 mmol/L NaAC-HAC pH 4.5, NaCl 150 mmol/L
  Situations of samples after preparation: Difficult to filter
[1]; 20 mmol/L NaAC-HAC pH 4.5, NaCl 500 mmol/L
  Situations of samples after preparation: Difficult to filter,; also recorded: turbid
[1]; 20 mmol/L NaAC-HAC pH 5.0, NaCl 0, 20, 150, 500 mmol/L
  Situations of samples after preparation: Turbid or precipitated
[1]; 20 mmol/L citrate sodium-citric acid pH 5.5, NaCl 0, 20, 150, 500 mmol/L
  Situations of samples after preparation: Turbid or precipitated
[1]; 20 mmol/L citrate sodium-citric acid pH 6.0, NaCl 0 mmol/L
  Situations of samples after preparation: Precipitate sticking
[1]; 20 mmol/L citrate sodium-citric acid pH 6.0, NaCl 20 mmol/L
  Situations of samples after preparation: Precipitate sticking
[1]; 20 mmol/L citrate sodium-citric acid pH 6.0, NaCl 150 mmol/L
  Situations of samples after preparation: Precipitate sticking
[1]; 20 mmol/L citrate sodium-citric acid pH 6.0, NaCl 500 mmol/L
  Situations of samples after preparation: Precipitate sticking
[1]; 20 mmol/L citrate sodium-citric acid pH 6.5, NaCl 0 mmol/L
  Situations of samples after preparation: Turbid
[1]; 20 mmol/L citrate sodium-citric acid pH 6.5, NaCl 20 mmol/L
  Situations of samples after preparation: Turbid
[1]; 20 mmol/L citrate sodium-citric acid pH 6.5, NaCl 150 mmol/L
  Situations of samples after preparation: Turbid
[1]; 20 mmol/L citrate sodium-citric acid pH 6.5, NaCl 500 mmol/L
  Situations of samples after preparation: Turbid
[1]; pH 3.0
  Appearance of the sample: no turbidity or precipitation
[1]; pH 3.5 and pH 4.0, 0.5 M NaCl
  Appearance of the sample: turbidity
[1]; pH 4.0, NaCl 29.22 mg/mL
  Appearance of the sample (no determination carried out): Samples became turbid after formulation.
[1]; pH 4.5
  Appearance of the sample prepared: clear and transparent
[1]; pH 4.5, NaCl 29.22 mg/mL
  Appearance of the sample (no determination carried out): Samples became turbid after formulation.
[1]; pH 4.5, high salt concentration
  Appearance after formulation and heating treatment: turbidity
[1]; pH 5.0 to 6.5
  Appearance while the GLP-1 sample was prepared: turbidity or precipitation
[1]; pH 6.5, NaCl 0, 1.17, 8.77, 29.22 mg/mL
  Appearance of the sample (no determination carried out): Turbidity was generated after formulation and
[1]; pH value between about 4.5 and 6.5
  Appearance: turbidity or precipitation
[2]; pH 3.0, NaCl 0 mg/mL, 35° C.
  Results of HPLC analysis, retention of the peptide content: 95.46%
[2]; pH 3.0, NaCl 0 mg/mL, 45° C.
  Results of HPLC analysis, retention of the peptide content: 87.19%
[2]; pH 3.0, NaCl 1.17 mg/mL, 35° C.
  Results of HPLC analysis, retention of the peptide content: 93.69%
[2]; pH 3.0, NaCl 1.17 mg/mL, 45° C.
  Results of HPLC analysis, retention of the peptide content: 87.93%
[2]; pH 3.0, NaCl 8.77 mg/mL, 35° C.
  Results of HPLC analysis, retention of the peptide content: 95.03%
[2]; pH 3.0, NaCl 8.77 mg/mL, 45° C.
  Results of HPLC analysis, retention of the peptide content: 87.86%
[2]; pH 3.0, NaCl 29.22 mg/mL, 35° C.
  Results of HPLC analysis, retention of the peptide content: 96.42%
[2]; pH 3.0, NaCl 29.22 mg/mL, 45° C.
  Results of HPLC analysis, retention of the peptide content: 91.16%
[2]; pH 3.5, NaCl 0 mg/mL, 35° C.
  Results of HPLC analysis, retention of the peptide content: 94.73%

Reference: US20160235855A1, “STABLE AQUEOUS PARENTERAL PHARMACEUTICAL COMPOSITIONS OF INSULINOTROPIC PEPTIDES” (SHANGHAI BENEMAE PHARMACEUTICAL CORPORATION, priority 2013, published 2016)
